Key:
Assay in all cases: cell-based or functional assay
VPAC1 = molecular target: T1, VPAC1
T1 sequence (P32241 whole entry, species assumed, looked up): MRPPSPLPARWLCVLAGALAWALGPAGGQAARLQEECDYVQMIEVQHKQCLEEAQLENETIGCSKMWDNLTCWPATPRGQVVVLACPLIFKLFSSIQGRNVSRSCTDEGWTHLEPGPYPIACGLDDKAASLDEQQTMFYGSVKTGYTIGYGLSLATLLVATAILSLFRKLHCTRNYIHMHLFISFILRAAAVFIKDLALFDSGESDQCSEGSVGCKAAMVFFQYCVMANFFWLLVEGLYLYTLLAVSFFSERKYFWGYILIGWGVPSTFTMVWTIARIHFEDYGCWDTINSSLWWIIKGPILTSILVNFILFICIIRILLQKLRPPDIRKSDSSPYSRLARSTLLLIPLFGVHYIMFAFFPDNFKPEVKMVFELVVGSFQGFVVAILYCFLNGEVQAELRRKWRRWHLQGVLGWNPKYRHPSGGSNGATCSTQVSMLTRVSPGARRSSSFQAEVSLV

VPAC2 = molecular target: T2, VPAC2
T2 sequence (P41587 whole entry, species assumed, looked up): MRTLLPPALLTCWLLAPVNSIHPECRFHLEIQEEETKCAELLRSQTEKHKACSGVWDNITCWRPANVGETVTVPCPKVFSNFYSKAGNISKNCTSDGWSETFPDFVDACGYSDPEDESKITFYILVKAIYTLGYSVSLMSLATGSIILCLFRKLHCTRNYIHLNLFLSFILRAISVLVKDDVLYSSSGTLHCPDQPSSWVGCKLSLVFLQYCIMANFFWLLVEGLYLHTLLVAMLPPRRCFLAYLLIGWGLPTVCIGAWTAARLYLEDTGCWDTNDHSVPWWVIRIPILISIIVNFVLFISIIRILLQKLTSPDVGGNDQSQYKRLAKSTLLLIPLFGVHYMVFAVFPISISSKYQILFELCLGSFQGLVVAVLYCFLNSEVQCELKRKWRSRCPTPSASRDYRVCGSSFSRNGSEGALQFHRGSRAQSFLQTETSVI

[1] = molecular target: human pituitary adenylate cyclase-activating polypeptide type I receptor (human) (UniProt P41586)
Chain of human pituitary adenylate cyclase-activating polypeptide type I receptor (human) (P41586 21-468): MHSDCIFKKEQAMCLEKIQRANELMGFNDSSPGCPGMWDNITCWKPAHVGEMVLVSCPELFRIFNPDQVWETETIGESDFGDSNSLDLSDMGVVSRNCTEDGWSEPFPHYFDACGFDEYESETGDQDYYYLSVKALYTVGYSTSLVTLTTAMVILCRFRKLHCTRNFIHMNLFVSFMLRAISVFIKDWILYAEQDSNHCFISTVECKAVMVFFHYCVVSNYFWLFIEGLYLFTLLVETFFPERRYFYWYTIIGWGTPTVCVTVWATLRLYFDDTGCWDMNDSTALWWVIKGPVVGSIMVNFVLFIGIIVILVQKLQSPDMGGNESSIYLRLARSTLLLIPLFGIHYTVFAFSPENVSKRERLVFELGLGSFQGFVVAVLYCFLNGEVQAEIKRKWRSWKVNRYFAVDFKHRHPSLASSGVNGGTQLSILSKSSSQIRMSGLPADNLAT

Chain of Maxadilan (P30659 24-84 limits assumed): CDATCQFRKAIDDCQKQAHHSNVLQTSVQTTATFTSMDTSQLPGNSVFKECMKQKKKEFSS

## Maxadilan (from UniProt P30659 24-84) (ligand)
VPAC1
  VPAC1 EC50 (agonist activity): > 1000 nM
VPAC2
  VPAC2 EC50 (agonist activity): > 1000 nM
[1]
  PAC1 EC50 (agonist activity): 0.06 nM
